Article PMC4672880

Biological target: GCNt stabilized pre-fusion soluble version of the NiV-F glycoprotein (NiV-sFGCNt) (Nipah virus) (UniProt Q9IH63)
Test: crystal structure

## GCNt stabilized pre-fusion soluble version of the NiV-F glycoprotein (NiV-sFGCNt) (from UniProt Q9IH63 27-488) (domain or fragment)
  stoichiometry N: 3
